Holding throughout (assay): NADH formation at A340
Substrate in data set [1]: NC(=O)c1ccc[n+]([C@@H]2O[C@H](COP(=O)(O)OP(=O)(O)OC[C@H]3O[C@@H](n4cnc5c(N)ncnc54)[C@H](O)[C@@H]3O)[C@@H](O)[C@H]2O)c1
It counts as biochemical, Escherichia coli. Conditions: E4P 8 mM, 50 mM PPi buffer pH 8.6, 1 mM DTT, 37 °C, varied: cofactor. The source says:
(§1) NADH formation at A340 on Eco_Epd

Substrate in data set [2]: O=C[C@H](O)[C@H](O)COP(=O)(O)O
The data set is classed as biochemical, Escherichia coli. Conditions: NAD+ 2 mM, 50 mM PPi buffer pH 8.6, 1 mM DTT, 37 °C.
Description: as §1

Substrate in data set [3]: NC(=O)c1ccc[n+]([C@@H]2O[C@H](COP(=O)(O)OP(=O)(O)OC[C@H]3O[C@@H](n4cnc5c(N)ncnc54)[C@H](O)[C@@H]3O)[C@@H](O)[C@H]2O)c1
The data set is classed as biochemical, Brumicola nitratireducens. Conditions: E4P 8 mM, 50 mM PPi buffer pH 8.6, 1 mM DTT, 37 °C, varied: cofactor. From the text: (§2) NADH formation at A340 on […]

Substrate in data set [4]: O=C[C@H](O)[C@H](O)COP(=O)(O)O
It counts as biochemical, Brumicola nitratireducens. To be noted: NAD+ 2 mM, 50 mM PPi buffer pH 8.6, 1 mM DTT, 37 °C.
Description: as §2

B1: Eco_Epd (Escherichia coli K-12) (protein)
chain: TVRVAINGFGRIGRNVVRALYESGRRAEITVVAINELADAAGMAHLLKYDTSHGRFAWEVRQERDQLFVGDDAIRVLHERSLQSLPWRELGVDVVLDCTGVYGSREHGEAHIAAGAKKVLFSHPGSNDLDATVVYGVNQDQLRAEHRIVSNASCTTNCIIPVIKLLDDAYGIESGTVTTIHSAMHDQQVIDAYHPDLRRTRAASQSIIPVDTKLAAGITRFFPQFNDRFEAIAVRVPTINVTAIDLSVTVKKPVKANEVNLLLQKAAQGAFHGIVDYTELPLVSVDFNHDPHSAIVDGTQTRVSGAHLIKTLVWCDNEWGFANRMLDTTLAMATVAFR
For the protein B1, in “NADH formation at A340 [1]”, the Km worked out at 717 µM, the kcat is 3.23 s⁻¹ and the catalytic efficiency (kcat/Km) was determined as 4510 M⁻¹ s⁻¹. Moreover, in “NADH formation at A340 [2]”, the Km came out at 969 µM, the catalytic constant (kcat) amounted to 0.15 s⁻¹ and the catalytic efficiency (kcat/Km) was determined as 155 M⁻¹ s⁻¹.

B2: Gni_Epd (Brumicola nitratireducens FR1064) (protein)
chain: MLRIAINGFGRIGRNVLRALYESGRNDQIQVVAINEIASPEGVAHLLKYDTAHGRFKGTVDYTDQCLIVNGDKIPLFQKNNIEELAWSTVNVDIVLECTGVFSSRESAQQHIDNGARKVLFSQPCGQDMDATIVFGVNHKTLKPSDVIVSNGSCTTNCIVPIIQVLDEAFGVESGTITTIHSSMNDQQVIDAYHPDLRRTRAASQSIIPVDTRLHVGIERILPRFAGKFEAIAVRVPTINVTAMDLSVTLRDKVTVSDVNAVLKKSAHGELKRIIDYTEEPLVSVDFNHDPHSSIVDGTQTRVSHKQLVKTLVWCDNEWGFANRMLDTALHMHQLDS
As for B2, in the data set “NADH formation at A340 [3]”, the Km amounted to 51 µM, the kcat came to 0.313 s⁻¹ and the catalytic efficiency (kcat/Km) is 6140 M⁻¹ s⁻¹. In “NADH formation at A340 [4]”, the Michaelis constant (Km) was found to be 737 µM, the kcat amounted to 0.323 s⁻¹ and the kcat/Km was determined as 438 M⁻¹ s⁻¹.

The values are drawn from article PMC10471632, “Protein engineering and iterative multimodule optimization for vitamin B6 production in Escherichia coli” (Nature Communications, 2023).
